Measurements taken from patent US12365732 (23ANDME, dated 2025).

Tests used:
[1] = target: T1, hu-CD96 isoform 2 on CHO cells (human, UniProt P40200 22-585); assay: FACS, Ab 2 nM
T1 construct: also called CHO-CD96 (isoform 2); CD96-CHOs
T1 sequence: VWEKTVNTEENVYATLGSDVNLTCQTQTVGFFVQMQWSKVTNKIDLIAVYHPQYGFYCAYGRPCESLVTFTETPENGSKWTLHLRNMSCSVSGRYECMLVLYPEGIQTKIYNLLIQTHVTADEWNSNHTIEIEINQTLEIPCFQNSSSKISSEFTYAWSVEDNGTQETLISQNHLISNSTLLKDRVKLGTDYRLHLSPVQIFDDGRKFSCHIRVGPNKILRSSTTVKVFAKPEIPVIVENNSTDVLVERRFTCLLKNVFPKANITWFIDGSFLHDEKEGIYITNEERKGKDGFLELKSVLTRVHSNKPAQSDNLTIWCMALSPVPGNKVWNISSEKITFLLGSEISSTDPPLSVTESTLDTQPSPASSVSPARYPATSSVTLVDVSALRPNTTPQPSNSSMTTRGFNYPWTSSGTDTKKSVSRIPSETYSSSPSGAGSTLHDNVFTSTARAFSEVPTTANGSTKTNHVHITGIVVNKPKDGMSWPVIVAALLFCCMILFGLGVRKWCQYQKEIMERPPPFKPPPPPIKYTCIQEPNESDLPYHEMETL
Protocol: (§1) Isoform 1 of hu-CD96 (Origene, catalog #RC213845) was transiently expressed in HEK293T cells following standard lipofectamine or Fugene transfection protocol. […] Cells were washed, and binding was detected by incubation with anti-mouse IgG-FITC (Biolegend, catalog #406001) for 20 minutes at 4° C. Cell binding was analyzed by flow cytometry with a CytoFLEX (Beckman Coulter). Binding curves were calculated as a percentage of cells positive for bound antibody.
Isoform 2 of hu-CD96 (DNA construct: Origene, catalog #RC221005) was expressed on a single-cell-clone-derived CHO stable cell line. Binding of the anti-CD96 antibodies to the CHO cells were determined as described above with isoform 1 of hu-CD96.

[2] = target: T2, hu-CD96 isoform 1 on HEK293T cells (human, UniProt P40200 22-585); assay: FACS, % positive curve
T2 construct: Origene RC213845, transient expression; also called HEK293T-CD96 (iso1)
T2 sequence: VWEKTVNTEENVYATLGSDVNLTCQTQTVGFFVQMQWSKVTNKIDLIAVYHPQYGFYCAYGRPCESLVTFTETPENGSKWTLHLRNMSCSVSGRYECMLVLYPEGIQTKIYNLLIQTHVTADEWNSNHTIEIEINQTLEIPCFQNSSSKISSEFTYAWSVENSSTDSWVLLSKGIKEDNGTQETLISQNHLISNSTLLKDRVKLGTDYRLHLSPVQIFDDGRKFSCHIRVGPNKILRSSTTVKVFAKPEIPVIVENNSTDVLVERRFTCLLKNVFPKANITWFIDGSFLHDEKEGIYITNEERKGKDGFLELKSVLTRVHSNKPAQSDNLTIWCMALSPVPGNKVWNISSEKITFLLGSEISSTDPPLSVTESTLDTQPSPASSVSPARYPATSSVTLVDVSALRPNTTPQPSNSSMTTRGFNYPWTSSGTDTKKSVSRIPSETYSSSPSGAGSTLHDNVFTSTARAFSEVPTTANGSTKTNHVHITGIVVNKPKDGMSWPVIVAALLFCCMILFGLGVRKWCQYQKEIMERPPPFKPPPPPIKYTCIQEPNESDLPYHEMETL
Protocol: as §1

B1: mAb1.v7 IgG (humanized 12F8) (antibody, V domains shown)
VH: EVQLVQSGAEVKKPGASVKVSCKASGFTFTNNWMHWVRQAPGQGLEWIGMIHPNSGITNINEKFKNRVTMTTDTSTSTAYMELRSLRSEDTAVYYCRSDGTYEGYFDYWGQGTLVTVSS
VL: DIQLTQSPSSLSASVGDRVTITCKASQNVGTAIVWYQQKPGKAPKVLIYSASTRYTGVPSRFSGSGSGTDFTLTISSLQPEDFATYYCQQYSSSPLTFGQGTKVEIKG
notes: human IgG1 N297G
- % positive [1]: 42.4%
- EC50 [2]: 2.6 nM
